Blank lines part the entries; values can stand above or below the substance they belong to.
Columns and labels:
TRB-2 = test system: T1, TRB-2
T1 sequence: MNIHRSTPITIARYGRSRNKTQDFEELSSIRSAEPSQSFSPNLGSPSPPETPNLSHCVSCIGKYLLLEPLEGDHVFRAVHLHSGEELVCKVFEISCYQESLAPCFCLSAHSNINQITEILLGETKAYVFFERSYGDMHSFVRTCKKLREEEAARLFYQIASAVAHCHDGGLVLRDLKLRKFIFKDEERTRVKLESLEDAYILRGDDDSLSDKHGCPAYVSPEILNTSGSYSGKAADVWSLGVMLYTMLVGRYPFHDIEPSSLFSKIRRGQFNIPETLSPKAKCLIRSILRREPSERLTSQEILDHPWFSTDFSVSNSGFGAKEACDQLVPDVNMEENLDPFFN

[1] = test system: TRB-3 (wild-type, recombinant; tag and species not stated)
[2] = molecular target: Akt (over-expressed or present in transfected cells; isoform and tag not stated); experiment: cell-based or functional assay
[3] = molecular target: GAL4 ΔPH (amino acids 150-480) Akt construct (yeast) (UniProt P04386); experiment: cell-based or functional assay
UniProt P04386, sequence (P04386 1-147, stated change not applied): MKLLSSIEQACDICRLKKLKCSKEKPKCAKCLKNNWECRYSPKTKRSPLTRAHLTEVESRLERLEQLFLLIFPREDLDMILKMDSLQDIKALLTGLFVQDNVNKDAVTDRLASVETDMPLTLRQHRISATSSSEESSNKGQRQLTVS

Substance: Akt (over-expressed or present in transfected cells; isoform and tag not stated)
phosphorylation of Akt (TRB-2): TRB-2 was similarly effective at blocking Akt phosphorylation

Substance: HA-tagged Akt1
Akt activity, in vitro kinase assays with a consensus Akt peptide substrate [1]: Over-expression of TRB-3 reduced Akt activity

forkhead (Foxo1) activity on an IGFBP1 reporter in HEK293 cells [2]: 3 fold
Substance: TRB-3 (wild-type, recombinant; tag and species not stated)

Substance: TRB-3-VP16 (from UniProt P06492 411-490)
GAL4 luciferase reporter activity, mammalian two hybrid assay in HEK293 cells, relative to control VP16 expression vector [3]: 5 fold

Reference: patent US7220539
